For experiment [1], the target named is mouse RAGE VC1 domain triple mutant R216A-R217H-R218A (mouse). Kind of experiment: ELISA; methods: 200 ng mRAGE-WT or mRAGE-AHA coated on the plate, 1% BSA block, biotinylated HMGB1 50-1000 ng/ml for 2 hr, streptavidin-HRP; the legend says HMGB1 was immobilised; apparent Kd.
In experiment [2] the target is T1, mouse RAGE VC1 domain triple mutant R216A-R217H-R218A.
T1 chain: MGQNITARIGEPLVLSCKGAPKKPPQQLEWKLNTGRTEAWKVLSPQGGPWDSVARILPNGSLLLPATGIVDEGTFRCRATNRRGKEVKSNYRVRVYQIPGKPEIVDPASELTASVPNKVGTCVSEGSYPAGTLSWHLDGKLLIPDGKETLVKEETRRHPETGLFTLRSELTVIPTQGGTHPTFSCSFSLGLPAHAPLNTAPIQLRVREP
Kind of experiment: gel filtration (Superdex 200). Particulars: chain shown with the change; incubated with HS dodecasaccharide (H12); Superdex 200 (10/300 mm) gel filtration column; parent: est. 13; read off a plot. Background: SEC sorts molecules by how far they enter the pores of the column.

Experiment [3] has as its target T2, high mobility group Box 1 (HMGB1) (UniProt P63158 1-215, biotin (in the HMGB1 binding ELISA of p-0047; immobilised without a stated label in the ELISA of p-0044)).
T2 construct: HMGB1; also called biotinylated HMGB1
T2 sequence (looked up): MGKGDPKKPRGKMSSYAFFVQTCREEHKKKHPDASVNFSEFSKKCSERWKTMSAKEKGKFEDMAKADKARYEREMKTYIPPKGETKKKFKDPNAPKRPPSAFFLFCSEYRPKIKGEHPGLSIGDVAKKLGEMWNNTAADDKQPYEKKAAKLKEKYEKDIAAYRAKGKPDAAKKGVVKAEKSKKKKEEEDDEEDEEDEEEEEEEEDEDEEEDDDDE
In words: ELISA; methods: 200 ng mRAGE-WT or mRAGE-AHA coated on the plate, 1% BSA block, biotinylated HMGB1 50-1000 ng/ml for 2 hr, streptavidin-HRP; the legend says HMGB1 was immobilised; apparent Kd. The following applies: both partners purified. A general note: An ELISA detects its analyte on a solid surface through an enzyme-linked reagent.

Take “high mobility group Box 1 (HMGB1) (from UniProt P63158 1-215) (ligand)”: the Kd in experiment [1] was 9.9 nM.

B1: wild-type mouse RAGE VC1 domain, Q62151 R216A; R217H; R218A (protein)
chain: MGQNITARIGEPLVLSCKGAPKKPPQQLEWKLNTGRTEAWKVLSPQGGPWDSVARILPNGSLLLPATGIVDEGTFRCRATNRRGKEVKSNYRVRVYQIPGKPEIVDPASELTASVPNKVGTCVSEGSYPAGTLSWHLDGKLLIPDGKETLVKEETRRHPETGLFTLRSELTVIPTQGGTHPTFSCSFSLGLPAHAPLNTAPIQLRVREP
As to B1, the other: gel filtration elution volume of main peak in presence of H12 in experiment [2] is 14 mL.

B2: wild-type mouse RAGE VC1 domain (domain or fragment, UniProt Q62151 23-231, looked up)
chain: GQNITARIGEPLVLSCKGAPKKPPQQLEWKLNTGRTEAWKVLSPQGGPWDSVARILPNGSLLLPATGIVDEGTFRCRATNRRGKEVKSNYRVRVYQIPGKPEIVDPASELTASVPNKVGTCVSEGSYPAGTLSWHLDGKLLIPDGKETLVKEETRRHPETGLFTLRSELTVIPTQGGTHPTFSCSFSLGLPRRRPLNTAPIQLRVREPG
notes: RAGE (receptor for advanced glycation end-products, Ager), mouse, V and C1 immunoglobulin domains; also called WT-mVC1; mVC1-WT; source: E. coli, purified (HiTrap SP cation exchange, SEC on Superdex 200)
For B2, the Kd in experiment [3] came to 11.7 nM.

Values taken from paper PMC8863369, “Heparan sulfate-dependent RAGE oligomerization is indispensable for pathophysiological functions of RAGE” (eLife, 2022).
